Experimental data published in patent US20240132577A1 (US Dept. of Health and Human Services, published 2024).
Where “and” joins values, the source holds several entries; their conditions need not be identical. Equal entries are not always repeated. Where two headings read alike, the source gives them in different places.

B1: Nb7 (VHH)
VHH: QVQLQESGGGLVQAGDSLRLSCLSSERTFRRYGIAWFRQAPGKEREFVAAVDRSHSQTNYADFVQGRFTISTVYAKNMVYLQMNSLKPEDTAVYYCAAASYEKGSDYTSWNTDRGYDYWGQGTQVTVSS
B2: Nb19-tri-IgG1 (Fc fusion)
chain: QVQLQESGGGLVQAGGSLRLSCAASGSGFSIHAMGWYRQAPGKQREFVAVVGHKTNYADSVKGRFTISRDVGKNTVELQMNSLKVEDTAVYYCYCNTIVTMTGVPDAVWGQGTQVTVSSGGGGSGGGGSGGGGSQVQLQESGGGLVQAGGSLRLSCAASGSGFSIHAMGWYRQAPGKQREFVAVVGHKTNYADSVKGRFTISRDVGKNTVELQMNSLKVEDTAVYYCYCNTIVTMTGVPDAVWGQGTQVTVSSGGGGSGGGGSGGGGSQVQLQESGGGLVQAGGSLRLSCAASGSGFSIHAMGWYRQAPGKQREFVAVVGHKTNYADSVKGRFTISRDVGKNTVELQMNSLKVEDTAVYYCYCNTIVTMTGVPDAVWGQGTQVTVSSDKTHTCPPCPAPELLGGPSVFLFPPKPKDTLMISRTPEVTCVWDVSHEDPEVKFNWYVDGVEVHNAKTKPREEQYNSTYRWSVLTVLHQDWLNGKEYKCKVSNKALPAPIEKTISKAKGQPREPQVYTLPPSREEMTKNQVSLTCLVKGFYPSDIAVEWESNGQPENNYKTTPPVLDSDGSFFLYSKLTVDKSRWQQGNVFSCSVMHEALHNHYTQKSLSLSPGKHHHHHH
B3: mNb35 (VHH)
VHH: QVQLVESGGGLVQAGGSLRLSCAASGRTFSKYAMGWFRQAPGKERKFVATISWSGDSAFYADSVKGRFTISRDNARNTVYLQMNSLKPEDTAVYYCTADRGMGYGDFMDYWGQGTSVTVSS
B4: Nb47 (VHH)
VHH: QVQLQESGGGLVQAGGSLRLSCAASGRTLSRYSMSWFRQAPGKEREFVAGIRWSGSNTYYADSMKQRFTISQDNVKNTVHLQMNSLKPEDTAVYYCAATSRSDHYLNAVAWTLPNEYDYWGQGTQVTVSS
B5: Nb17-tri-IgG1 (Fc fusion)
chain: QVQLQESGGGLVQTGGSLRLSCAASGRTFGIYRMGWFRQAPGKEREFVAAITSSADTAQYRDSVKGRFAISRDNAKNTLYLQMNSLKPEDTAIYYCAARDPTTLEYGNWGQGTQVTVSSGGGGSGGGGSGGGGSQVQLQESGGGLVQTGGSLRLSCAASGRTFGIYRMGWFRQAPGKEREFVAAITSSADTAQYRDSVKGRFAISRDNAKNTLYLQMNSLKPEDTAIYYCAARDPTTLEYGNWGQGTQVTVSSGGGGSGGGGSGGGGSQVQLQESGGGLVQTGGSLRLSCAASGRTFGIYRMGWFRQAPGKEREFVAAITSSADTAQYRDSVKGRFAISRDNAKNTLYLQMNSLKPEDTAIYYCAARDPTTLEYGNWGQGTQVTVSSDKTHTCPPCPAPELLGGPSVFLFPPKPKDTLMISRTPEVTCVWDVSHEDPEVKFNWYVDGVEVHNAKTKPREEQYNSTYRWSVLTVLHQDWLNGKEYKCKVSNKALPAPIEKTISKAKGQPREPQVYTLPPSREEMTKNQVSLTCLVKGFYPSDIAVEWESNGQPENNYKTTPPVLDSDGSFFLYSKLTVDKSRWQQGNVFSCSVMHEALHNHYTQKSLSLSPGKHHHHHH
B6: Nb15-tri-IgG1 (Fc fusion)
chain: QVQLQESGGGLVQAGGSLRVSCAASGLPFSDYLMGWFRQAPGKEREYVAAISQNGGHTYADSVLGRFTISRDNAKNTVYLQMNMLTPGDTAVYSCAARRPGGGRWDAAHDYNYWGQGTQVTVSSGGGGSGGGGSGGGGSQVQLQESGGGLVQAGGSLRVSCAASGLPFSDYLMGWFRQAPGKEREYVAAISQNGGHTYADSVLGRFTISRDNAKNTVYLQMNMLTPGDTAVYSCAARRPGGGRWDAAHDYNYWGQGTQVTVSSGGGGSGGGGSGGGGSQVQLQESGGGLVQAGGSLRVSCAASGLPFSDYLMGWFRQAPGKEREYVAAISQNGGHTYADSVLGRFTISRDNAKNTVYLQMNMLTPGDTAVYSCAARRPGGGRWDAAHDYNYWGQGTQVTVSSDKTHTCPPCPAPELLGGPSVFLFPPKPKDTLMISRTPEVTCVWDVSHEDPEVKFNWYVDGVEVHNAKTKPREEQYNSTYRWSVLTVLHQDWLNGKEYKCKVSNKALPAPIEKTISKAKGQPREPQVYTLPPSREEMTKNQVSLTCLVKGFYPSDIAVEWESNGQPENNYKTTPPVLDSDGSFFLYSKLTVDKSRWQQGNVFSCSVMHEALHNHYTQKSLSLSPGKHHHHHH
B7: Nb43 (VHH)
VHH: QVQLQESGGGLVQAGDSLKLSCAASGRTFSDSAMGWFRQAPGEEREFVAVITWNGGTTYYADSVKGRFTISRDDAKNTVYLQMNSLKPEDTAVYYCAADTSRWDYSLTYHYTREYNYWGQGTQVTVSS
B8: Nb6 (VHH)
VHH: QVQLQESGGGLVQAGGSLRLSCAASGNIANSNSMAWWRQTPGNQHERVAIISHGVTNYADSVKGRFTVSRDNAKNTLYLQMNNLKPEDTAAYYCYADLFGNTYWGQGTQVTVSS

Legend:
Experiment in all cases: cell-based or functional assay
[1] = target: T1, SARS-CoV-2 S protein (C-terminally truncated, on pseudotyped virus) (SARS-CoV-2 (Wuhan-Hu-1), UniProt P0DTC2 14-1254)
[2] = target: T1, SARS-CoV-2 S protein (C-terminally …); remark: listed apart in the source
[3] = target: T1, SARS-CoV-2 S protein (C-terminally …); remark: listed apart in the source
[4] = target: SARS-CoV-2 S protein K417N + E484K + N501Y (on pseudotyped virus) (SARS-CoV-2, UniProt P0DTC2 14-1254)
[5] = target: SARS-CoV-2 S protein R683G (on pseudotyped virus) (SARS-CoV-2, UniProt P0DTC2 14-1254)
[6] = target: SARS-CoV-2 S protein K417N (on pseudotyped virus) (SARS-CoV-2, UniProt P0DTC2 14-1254)
[7] = target: SARS-CoV-2 S protein N501Y (on pseudotyped virus) (SARS-CoV-2, UniProt P0DTC2 14-1254)
[8] = target: SARS-CoV-2 S protein E484K (on pseudotyped virus) (SARS-CoV-2, UniProt P0DTC2 14-1254)

| Binder | IC50 (pseudovirus neutralization) [1] | IC90 (pseudovirus neutralization) [1] | IC50 (pseudovirus neutralization) [2] | IC90 (pseudovirus neutralization) [2] | IC50 (variant pseudovirus neutralization) [3] | IC50 (variant pseudovirus neutralization) [4] | IC50 (variant pseudovirus neutralization) [5] | IC50 (variant pseudovirus neutralization) [6] | IC50 (variant pseudovirus neutralization) [7] | IC50 (variant pseudovirus neutralization) [8] |
| --- | --- | --- | --- | --- | --- | --- | --- | --- | --- | --- |
| B1 | 43 ng/ml and 3.2 nM | 451 ng/ml and 33.4 nM | – | – | – | – | – | – | – | – |
| B2 | – | – | 0.65 ng/ml and 9.38 nM | 3.96 ng/ml and 57.6 nM | 0.012 nM | 0.115 nM | 0.003 nM | 0.006 nM | 0.01 nM | 0.095 nM |
| B3 | 209 ng/ml and 15.5 nM | 692 ng/ml and 51.3 nM | – | – | – | – | – | – | – | – |
| B4 | 731 ng/ml and 54.2 nM | > 10000 ng/ml and > 500 nM | – | – | – | – | – | – | – | – |
| B5 | – | – | 1.24 ng/ml and 18 nM | 4.7 ng/ml and 68.2 nM | 0.015 nM | 47.4 nM | 0.004 nM | 0.008 nM | 0.01 nM | 50 nM |
| B6 | – | – | 10 ng/ml and 142 nM | 26.9 ng/ml and 381 nM | 0.073 nM | 0.03 nM | 0.013 nM | 0.027 nM | 0.021 nM | 0.041 nM |
| B7 | 281 ng/ml and 20.9 nM | 5330 ng/ml and 395 nM | – | – | – | – | – | – | – | – |
| B8 | 141 ng/ml and 10.5 nM | 354 ng/ml and 26.3 nM | – | – | – | – | – | – | – | – |
